Patent US6506874

Key:
human IGFBP-1 [1] = target: T1, human IGFBP-1 (human, UniProt P08833 26-259); assay: competitive phage ELISA
T1 construct: Secreted recombinant protein
T1 sequence (looked up): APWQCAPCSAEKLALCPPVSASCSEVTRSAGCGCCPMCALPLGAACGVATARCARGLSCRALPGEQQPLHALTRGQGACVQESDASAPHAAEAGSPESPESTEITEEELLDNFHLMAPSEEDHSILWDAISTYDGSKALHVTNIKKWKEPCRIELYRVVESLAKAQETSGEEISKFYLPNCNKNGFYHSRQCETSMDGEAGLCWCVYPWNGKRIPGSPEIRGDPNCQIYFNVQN
Protocol: (§1) Phage particles were harvested and resuspended in PBS buffer as described in Lowman, H. B., "Phage Display of Peptide Libraries on Protein Scaffolds," in Cabilly, S. (ed.), *Combinatorial Peptide Library Protocols* (Humana Press Inc.: Totowa, N.J., 1998), pp. 249–264. Then phage concentrations were normalized to yield a maximal ELISA signal of 0.2–0.4 for each mutant (Lowman, in Cabilly, S. (ed.), supra). Threefold serial dilutions of soluble competitor were prepared on non-absorbent microtiter plates (Nunc, F, 96 wells) with binding buffer (0.5% TWEEN™ 20/PBS) containing phage at the previously-determined concentrations. The dilution range of competitor protein extended over six orders of magnitude, starting at 5 μM for IGFBP-1 and 500 nM for IGFBP-3. After blocking, the plates containing immobilized target were washed with 0.05% TWEEN™ PBS buffer and subsequently incubated with 80 μl/well of the premixed phage-competitor solutions for 1 hour at room temperature. […] Numbers in Table I represent mean ±standard deviation of individually assessed $IC50$ values.
(§2) At least two different clones of every mutant were tested.

[2] = target: T2, recombinant human IGFBP-3 (human, UniProt P17936 28-291); assay: competitive phage ELISA, soluble IGFBP-3
T2 construct: Secreted recombinant protein
T2 sequence (P17936 28-291 limits assumed): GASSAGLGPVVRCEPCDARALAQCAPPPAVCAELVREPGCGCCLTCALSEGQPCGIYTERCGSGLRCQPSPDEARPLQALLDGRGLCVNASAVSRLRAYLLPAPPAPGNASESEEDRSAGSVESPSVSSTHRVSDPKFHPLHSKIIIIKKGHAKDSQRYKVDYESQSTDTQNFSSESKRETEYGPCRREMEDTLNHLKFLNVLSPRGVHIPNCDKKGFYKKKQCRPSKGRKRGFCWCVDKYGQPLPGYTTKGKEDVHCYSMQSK
Protocol: as §1, §2

human IGFBP-1 [3] = target: T1, human IGFBP-1; assay: competitive phage ELISA, soluble IGFBP-1
Protocol: as §1, §2

| Binder | fold increase in binding (human IGFBP-1 [1]) [fold] | IC50 [2] [nM] | IC50 (human IGFBP-1 [3]) [nM] |
| --- | --- | --- | --- |
| IGF-I D12A (on G1S-A70V) displayed on phage (ligand, not shown: Display partner: M13 gene III protein fragment (residues 249-406) and the junction to it) SPETLCGAELVAALQFVCGDRGFYFNKPTGYGSSSRRAPQTGIVDECCFRSCDLRRLEMYCAPLKPAKSV | ~2 |  |  |
| IGF-I G7A (on G1S-A70V) displayed on phage (ligand, not shown: large carriers, disulfide (positions not given here); not fully specified; also: displayed on M13 phage as gene III fusion) SPETLCAAELVDALQFVCGDRGFYFNKPTGYGSSSRRAPQTGIVDECCFRSCDLRRLEMYCAPLKPAKSV |  | 4.58 |  |
| IGF-I E9A (on G1S-A70V) displayed on phage (ligand, not shown: large carriers, disulfide (positions not given here); not fully specified; also: displayed on M13 phage as gene III fusion) SPETLCGAALVDALQFVCGDRGFYFNKPTGYGSSSRRAPQTGIVDECCFRSCDLRRLEMYCAPLKPAKSV |  | 1.32 | 8.6 |
| IGF-I D45A (on G1S-A70V) displayed on phage (ligand, not shown: M13 gene III fragment (residues 249-406) used as phage-display carrier, and its junction to IGF-I) SPETLCGAELVDALQFVCGDRGFYFNKPTGYGSSSRRAPQTGIVAECCFRSCDLRRLEMYCAPLKPAKSV | ~2 |  |  |
| IGF-I G30A (on G1S-A70V) displayed on phage (ligand, not shown: large carriers) SPETLCGAELVDALQFVCGDRGFYFNKPTAYGSSSRRAPQTGIVDECCFRSCDLRRLEMYCAPLKPAKSV |  | 0.58 | 7.1 |
| IGF-I S34A (on G1S-A70V) displayed on phage (ligand, not shown: large carriers) SPETLCGAELVDALQFVCGDRGFYFNKPTGYGSASRRAPQTGIVDECCFRSCDLRRLEMYCAPLKPAKSV |  | 1.65 | 9.5 |
| IGF-I T29A (on G1S-A70V) displayed on phage (ligand, not shown: large carriers) SPETLCGAELVDALQFVCGDRGFYFNKPAGYGSSSRRAPQTGIVDECCFRSCDLRRLEMYCAPLKPAKSV |  | 1.23 | 7.3 |
| IGF-I G32A (on G1S-A70V) displayed on phage (ligand, not shown: large carriers) SPETLCGAELVDALQFVCGDRGFYFNKPTGYASSSRRAPQTGIVDECCFRSCDLRRLEMYCAPLKPAKSV |  | 0.76 | 10.9 |
| IGF-I P2A (on G1S-A70V) displayed on phage (ligand, not shown: M13 gene III fragment (residues 249-406) used as phage-display carrier, and its junction to IGF-I) SAETLCGAELVDALQFVCGDRGFYFNKPTGYGSSSRRAPQTGIVDECCFRSCDLRRLEMYCAPLKPAKSV |  | 0.81 | 11 |
| IGF-I S33A (on G1S-A70V) displayed on phage (ligand, not shown: large carriers) SPETLCGAELVDALQFVCGDRGFYFNKPTGYGASSRRAPQTGIVDECCFRSCDLRRLEMYCAPLKPAKSV |  | 1.01 | 9.1 |
| IGF-I P28A (on G1S-A70V) displayed on phage (ligand, not shown: large carriers; small tags and cut ends) SPETLCGAELVDALQFVCGDRGFYFNKATGYGSSSRRAPQTGIVDECCFRSCDLRRLEMYCAPLKPAKSV |  | 1.41 | 9.3 |
| IGF-I Y31A (on G1S-A70V) displayed on phage (ligand, not shown: large carriers) SPETLCGAELVDALQFVCGDRGFYFNKPTGAGSSSRRAPQTGIVDECCFRSCDLRRLEMYCAPLKPAKSV |  | 0.73 | 6.8 |
